According to patent publication US20120130045A1, “BIOMOLECULE-POLYMER CONJUGATES AND METHODS OF MAKING SAME” (ABLITECH, INC., priority 2009, published 2012):

Columns and labels:
DNase I = DNase I digestion monitored by TLC; format: in vitro ADME; details: for DNase I digestion after six hours (TLC, FIG. 6): model oligonucleotide
Text: Nucleases and proteases are common and result in extremely short half-life for biomolecules not protected from the in vivo environment. In addition, carboxylesterases (CES) are known to be present in many cancerous tumor cells. Therefore, the ability of the biomolecule-polymer conjugates of the disclosure to withstand degradation in the presence of fetal calf serum (FCS) and either DNase I, or 51 nuclease is investigated, as well as the ability of carboxylesterase 1 to degrade the biomolecule-polymer conjugates and release the biomolecule.
Concentrations of treatments were as follows: FCS (30%), DNase I (30 units), 51 nuclease (10 units). Digestions were conducted at 37° C. and monitored by either thin layer chromatography or gel electrophoresis.

[1] = test system: bacterial 16S ribosomal RNA gene; experiment: PCR amplification with 8F primer conjugates, gel electrophoresis; format: biochemical
Text: The retention and recovery of the original functionality of the biomolecule is a characteristic of the conjugates of the disclosure. In order to test the ability of an oligonucleotide-polymer conjugate of the disclosure to functionally bind its complementary sequence, PCR primers were utilized. The universal bacterial primers 8F (5′-[…]-3′, SEQ ID NO:2) and 1392R (5′-ACGGGCGGTGTGTACA-3′, SEQ ID NO:3) were used to amplify a portion of the bacterial 16S ribosomal RNA gene. The 8F primer conjugated to MPEG-550 networked with MPEG-550 were prepared according to Examples 7 and 9 above, and subjected to DNase I degradation studies.
The MPEG550 conjugate and the MPEG550-networked-conjugate were then treated with NH4OH to release the PCR primers from the MPEG550 via chemical degradation and PCR amplification was then performed. Each 50-μl PCR mixture contained 1 μl template DNA (either E. coli. or an environmental isolate belonging to the genus Streptomonospora), 2 U Taq DNA polymerase (Eppendorf), 1×Taq buffer, […] Mg(OAc)2, 1×Taq Master PCR Enhancer, each deoxynucleoside triphosphate at a concentration of 20 μM, and each primer at a concentration of 0.4 μM. The PCR conditions were 85° C. for 5 min, 30 cycles of 94° C. for 45 s, 55° C. for 1 min, and 72° C. for 90 s, with a final 7 min extension at 72° C.

| Substance | DNase I digestion after six hours (TLC, FIG. 6) (DNase I; DNase I 30 units, 37° C.) | DNase I digestion after one hour (TLC, FIG. 9) (DNase I; 8F PCR primer conjugates, DNase I, one hour) | PCR amplification product after NH4OH treatment (1% agarose gel) ([1]; conjugate cleaved in NH4OH for 15 minutes and 18 hours before PCR) | PCR amplification product (1% agarose gel) ([1]; each primer 0.4 μM, with 1392R primer, 30 cycles) | DNase I digestion after one hour (TLC, FIG. 5) (DNase I; DNase I 30 units, 37° C., one hour, model oligonucleotide of Example 1) | DNase I digestion after 3 hours following NH4OH treatment (TLC, FIG. 7) (DNase I; conjugate treated with NH4OH to cleave the L-X bond, then DNase I, 3 hours) |
| --- | --- | --- | --- | --- | --- | --- |
| 5′-TTTTATTTTATTTTATTTTA-3′ (model oligonucleotide, sugar chemistry not given here, further chemistry not given here) [native model oligonucleotide, reference compound] | completely digested |  |  |  |  |  |
| MPEG550 conjugate: universal bacterial 8F PCR primer (SEQ ID NO:2) conjugated to MPEG-550 according to Example 7 (DNA AGAGTTTGATCCTGGCTCAG; primer conjugated to MPEG-550, position not given here) |  | resistant to nuclease degradation | yielded the appropriate size amplification product | functional and yielded the appropriate size amplification product |  |  |
| oligonucleotide-MPEG conjugate: model oligonucleotide of Example 1 (SEQ ID NO:1) conjugated to MPEG550 (methoxy-terminated PEG, MW 550) (TTTTATTTTATTTTATTTTA; DNA, backbone not given here; conjugated to MPEG550 via propargyl chloroformate chemistry, further chemistry not fully specified) | remained intact |  |  |  | resistant to DNase I treatment | allowed for degradation by DNase I |
